Data reported in the Human Domainome abundance scans (Beltran et al. 2025).
± gives the uncertainty stated by the source.

B1: Calcium-binding protein 2, residues 155 to 219; numbered along this chain, Q9NPB3 (parent)
chain: RELRDAFREFDTNGDGRISVGELRAALKALLGERLSQREVDEILQDVDLNGDGLVDFEEFVRMMS

Variants of: B1
Assay: abundance fitness (aPCA) (normalised: wild type 0, dead -1); higher = more abundant; growth selection in yeast, the domain comes from the species named
Conditions: Homo sapiens

Variant | abundance fitness
RELRDAFREFDTNGDGRISVGELRAALKALLGERLSQREVDEILQDVDLTGDGLVDFEEFVRMMS [N50T] | -0.022 ± 0.084
RELRDAFREFDTNGDGRISVGELRAALKALLGERLSQREVDEILQDVDLVGDGLVDFEEFVRMMS [N50V] | -0.254 ± 0.061
RELRDAFREFDTNGDGRISVGELRAALKALLGERLSQREVDEILQDVDLWGDGLVDFEEFVRMMS [N50W] | -0.627 ± 0.067
RELRDAFREFDTNGDGRISVGELRAALKALLGERLSQREVDEILQDVDLYGDGLVDFEEFVRMMS [N50Y] | -0.419 ± 0.16
RELRDAFREFDTNGDGRISVGELRAALKALLGERLSQREVDEILQDVDLNADGLVDFEEFVRMMS [G51A] | 0.062 ± 0.054
RELRDAFREFDTNGDGRISVGELRAALKALLGERLSQREVDEILQDVDLNDDGLVDFEEFVRMMS [G51D] | 0.057 ± 0.16
RELRDAFREFDTNGDGRISVGELRAALKALLGERLSQREVDEILQDVDLNEDGLVDFEEFVRMMS [G51E] | 0.181 ± 0.063
RELRDAFREFDTNGDGRISVGELRAALKALLGERLSQREVDEILQDVDLNFDGLVDFEEFVRMMS [G51F] | -0.269 ± 0.18
RELRDAFREFDTNGDGRISVGELRAALKALLGERLSQREVDEILQDVDLNHDGLVDFEEFVRMMS [G51H] | -0.071 ± 0.15
RELRDAFREFDTNGDGRISVGELRAALKALLGERLSQREVDEILQDVDLNKDGLVDFEEFVRMMS [G51K] | 0.014 ± 0.17
RELRDAFREFDTNGDGRISVGELRAALKALLGERLSQREVDEILQDVDLNLDGLVDFEEFVRMMS [G51L] | 0.06 ± 0.061
RELRDAFREFDTNGDGRISVGELRAALKALLGERLSQREVDEILQDVDLNMDGLVDFEEFVRMMS [G51M] | 0.047 ± 0.071
RELRDAFREFDTNGDGRISVGELRAALKALLGERLSQREVDEILQDVDLNNDGLVDFEEFVRMMS [G51N] | 0.098 ± 0.12
RELRDAFREFDTNGDGRISVGELRAALKALLGERLSQREVDEILQDVDLNPDGLVDFEEFVRMMS [G51P] | 0.151 ± 0.1
RELRDAFREFDTNGDGRISVGELRAALKALLGERLSQREVDEILQDVDLNRDGLVDFEEFVRMMS [G51R] | -0.085 ± 0.04
RELRDAFREFDTNGDGRISVGELRAALKALLGERLSQREVDEILQDVDLNTDGLVDFEEFVRMMS [G51T] | 0.006 ± 0.11
RELRDAFREFDTNGDGRISVGELRAALKALLGERLSQREVDEILQDVDLNVDGLVDFEEFVRMMS [G51V] | 0.003 ± 0.06
RELRDAFREFDTNGDGRISVGELRAALKALLGERLSQREVDEILQDVDLNWDGLVDFEEFVRMMS [G51W] | -0.301 ± 0.062
RELRDAFREFDTNGDGRISVGELRAALKALLGERLSQREVDEILQDVDLNYDGLVDFEEFVRMMS [G51Y] | -0.107 ± 0.19
RELRDAFREFDTNGDGRISVGELRAALKALLGERLSQREVDEILQDVDLNGAGLVDFEEFVRMMS [D52A] | 0.009 ± 0.052
RELRDAFREFDTNGDGRISVGELRAALKALLGERLSQREVDEILQDVDLNGCGLVDFEEFVRMMS [D52C] | -0.124 ± 0.091

Variant | abundance fitness
RELRDAFREFDTNGDGRISVGELRAALKALLGERLSQREVDEILQDVDLNGEGLVDFEEFVRMMS [D52E] | 0.043 ± 0.068
RELRDAFREFDTNGDGRISVGELRAALKALLGERLSQREVDEILQDVDLNGFGLVDFEEFVRMMS [D52F] | -0.414 ± 0.18
RELRDAFREFDTNGDGRISVGELRAALKALLGERLSQREVDEILQDVDLNGHGLVDFEEFVRMMS [D52H] | -0.049 ± 0.11
RELRDAFREFDTNGDGRISVGELRAALKALLGERLSQREVDEILQDVDLNGIGLVDFEEFVRMMS [D52I] | -0.126 ± 0.082
RELRDAFREFDTNGDGRISVGELRAALKALLGERLSQREVDEILQDVDLNGKGLVDFEEFVRMMS [D52K] | -0.094 ± 0.1
RELRDAFREFDTNGDGRISVGELRAALKALLGERLSQREVDEILQDVDLNGLGLVDFEEFVRMMS [D52L] | -0.108 ± 0.062
RELRDAFREFDTNGDGRISVGELRAALKALLGERLSQREVDEILQDVDLNGMGLVDFEEFVRMMS [D52M] | -0.168 ± 0.086
RELRDAFREFDTNGDGRISVGELRAALKALLGERLSQREVDEILQDVDLNGPGLVDFEEFVRMMS [D52P] | -0.145 ± 0.09
RELRDAFREFDTNGDGRISVGELRAALKALLGERLSQREVDEILQDVDLNGQGLVDFEEFVRMMS [D52Q] | -0.121 ± 0.11
RELRDAFREFDTNGDGRISVGELRAALKALLGERLSQREVDEILQDVDLNGRGLVDFEEFVRMMS [D52R] | -0.149 ± 0.064
RELRDAFREFDTNGDGRISVGELRAALKALLGERLSQREVDEILQDVDLNGSGLVDFEEFVRMMS [D52S] | -0.133 ± 0.08
RELRDAFREFDTNGDGRISVGELRAALKALLGERLSQREVDEILQDVDLNGTGLVDFEEFVRMMS [D52T] | -0.196 ± 0.097
RELRDAFREFDTNGDGRISVGELRAALKALLGERLSQREVDEILQDVDLNGYGLVDFEEFVRMMS [D52Y] | -0.18 ± 0.072
RELRDAFREFDTNGDGRISVGELRAALKALLGERLSQREVDEILQDVDLNGDALVDFEEFVRMMS [G53A] | -0.115 ± 0.064
RELRDAFREFDTNGDGRISVGELRAALKALLGERLSQREVDEILQDVDLNGDCLVDFEEFVRMMS [G53C] | -0.121 ± 0.13
RELRDAFREFDTNGDGRISVGELRAALKALLGERLSQREVDEILQDVDLNGDDLVDFEEFVRMMS [G53D] | -0.088 ± 0.062
RELRDAFREFDTNGDGRISVGELRAALKALLGERLSQREVDEILQDVDLNGDELVDFEEFVRMMS [G53E] | -0.199 ± 0.086
RELRDAFREFDTNGDGRISVGELRAALKALLGERLSQREVDEILQDVDLNGDHLVDFEEFVRMMS [G53H] | 0.011 ± 0.11
RELRDAFREFDTNGDGRISVGELRAALKALLGERLSQREVDEILQDVDLNGDILVDFEEFVRMMS [G53I] | -0.147 ± 0.12
RELRDAFREFDTNGDGRISVGELRAALKALLGERLSQREVDEILQDVDLNGDLLVDFEEFVRMMS [G53L] | -0.23 ± 0.067
RELRDAFREFDTNGDGRISVGELRAALKALLGERLSQREVDEILQDVDLNGDMLVDFEEFVRMMS [G53M] | -0.141 ± 0.09
